Laboratory results reported in publication PMC10357528.

Target: SARS-CoV-2 receptor-binding domain, wild-type (SARS-CoV-2) (UniProt P0DTC2)
Assay: AlphaScreen or HTRF

SARS-CoV-2 receptor-binding domain, wild-type (from UniProt P0DTC2 319-541) (domain or fragment)
AlphaLISA signal: 29000 CPS
